Results as given in US20140087995A1 (published 2014).
Numbered stars: 1 amine (or outer) side, 2 acyl side, 3 side chain; on linkers, the order of the positions; unused ones are H or OH. Bridge positions count the residues as written; N and C are the ends. Side chains are listed from the residue outwards. Ends that are not written are not given here. * marks the point of attachment. C20 diacid = O=C(O)CCCCCCCCCCCCCCCCCCC(=O)*; γGlu = O=C(O)[C@H](CCC(=O)[*:2])N[*:1]; AEEA = NCCOCCOCC(=O)O

T1: human amylin receptor (human, UniProt P30988 25-474; O60896 24-148, limits assumed)
T1 construct: whole, on cells; Calcitonin receptor plus RAMP-3 gives the amylin 3(a) receptor; membranes of Amylin 3(a)/CRE-luc cells were used; also called hAmylin-R; hAmylinR
T1 sequence (looked up) 1: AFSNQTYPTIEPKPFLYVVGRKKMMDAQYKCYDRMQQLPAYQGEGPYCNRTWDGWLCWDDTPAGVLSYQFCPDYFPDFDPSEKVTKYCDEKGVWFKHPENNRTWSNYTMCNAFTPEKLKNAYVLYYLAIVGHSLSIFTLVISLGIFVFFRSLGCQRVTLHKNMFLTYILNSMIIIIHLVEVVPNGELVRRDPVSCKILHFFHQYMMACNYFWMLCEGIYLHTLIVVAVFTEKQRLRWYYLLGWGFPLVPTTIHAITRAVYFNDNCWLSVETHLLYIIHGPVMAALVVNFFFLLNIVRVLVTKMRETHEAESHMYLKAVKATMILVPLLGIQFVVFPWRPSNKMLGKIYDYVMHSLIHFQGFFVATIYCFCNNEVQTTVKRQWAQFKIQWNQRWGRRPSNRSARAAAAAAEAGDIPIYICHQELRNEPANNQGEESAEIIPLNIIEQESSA
T1 sequence (looked up) 2: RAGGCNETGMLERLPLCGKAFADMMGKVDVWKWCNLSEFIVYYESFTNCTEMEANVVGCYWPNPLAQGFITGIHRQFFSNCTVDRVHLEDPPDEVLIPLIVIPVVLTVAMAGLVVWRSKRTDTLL

B1: N^α1-[(4S)-4-carboxy-4-(19-carboxynonadecanoylamino)butanoyl]-[Glu14,Arg17,Pro21,Pro27]-h-amylin (peptide)
peptide: KCNTATCATQRLAEFLRHSSPNFGAIPSSTNVGSNTY
modifications: C20 diacid-gGlu on the alpha amino group of the N-terminal residue; disulfide Cys2-Cys7 and C-terminal amide as in human amylin
notes: also called 14E, 17R, 21P, 27P
B2: N^ε1-[2-[2-[2-(19-carboxynonadecanoylamino)ethoxy]ethoxy]acetyl]-[His14,Arg17,Pro21,Pro27]-h-amylin (peptide)
peptide: K([AEEA-C20 diacid])CNTATCATQRLAHFLRHSSPNFGAIPSSTNVGSNTY-NH2
modifications: disulfide 2-7; N-terminus assumed
SMILES: CC[C@H](C)[C@H](NC(=O)[C@H](C)NC(=O)CNC(=O)[C@H](Cc1ccccc1)NC(=O)[C@H](CC(N)=O)NC(=O)[C@@H]1CCCN1C(=O)[C@H](CO)NC(=O)[C@H](CO)NC(=O)[C@H](Cc1c[nH]cn1)NC(=O)[C@H](CCCNC(=N)N)NC(=O)[C@H](CC(C)C)NC(=O)[C@H](Cc1ccccc1)NC(=O)[C@H](Cc1c[nH]cn1)NC(=O)[C@H](C)NC(=O)[C@H](CC(C)C)NC(=O)[C@H](CCCNC(=N)N)NC(=O)[C@H](CCC(N)=O)NC(=O)[C@@H](NC(=O)[C@H](C)NC(=O)[C@@H]1CSSC[C@H](NC(=O)[C@@H](N)CCCCNC(=O)COCCOCCNC(=O)CCCCCCCCCCCCCCCCCCC(=O)O)C(=O)N[C@@H](CC(N)=O)C(=O)N[C@@H]([C@@H](C)O)C(=O)N[C@@H](C)C(=O)N[C@@H]([C@@H](C)O)C(=O)N1)[C@@H](C)O)C(=O)N1CCC[C@H]1C(=O)N[C@@H](CO)C(=O)N[C@@H](CO)C(=O)N[C@H](C(=O)N[C@@H](CC(N)=O)C(=O)N[C@H](C(=O)NCC(=O)N[C@@H](CO)C(=O)N[C@@H](CC(N)=O)C(=O)N[C@H](C(=O)N[C@@H](Cc1ccc(O)cc1)C(N)=O)[C@@H](C)O)C(C)C)[C@@H](C)O
notes: also called 14H, 17R, 21P, 27P
B3: N^ε1-[2-[2-[2-[[2-[2-[2-[[(4S)-4-carboxy-4-(19-carboxynonadecanoylamino)butanoyl]amino]ethoxy]ethoxy]acetyl]amino]ethoxy]ethoxy]acetyl]-[Arg17,Pro21,Pro27,Glu35 … (peptide)
peptide: K([AEEA-AEEA-γGlu-C20 diacid])CNTATCATQRLANFLRHSSPNFGAIPSSTNVGSETY-NH2
modifications: disulfide 2-7; N-terminus assumed
SMILES: CC[C@H](C)[C@H](NC(=O)[C@H](C)NC(=O)CNC(=O)[C@H](Cc1ccccc1)NC(=O)[C@H](CC(N)=O)NC(=O)[C@@H]1CCCN1C(=O)[C@H](CO)NC(=O)[C@H](CO)NC(=O)[C@H](Cc1c[nH]cn1)NC(=O)[C@H](CCCNC(=N)N)NC(=O)[C@H](CC(C)C)NC(=O)[C@H](Cc1ccccc1)NC(=O)[C@H](CC(N)=O)NC(=O)[C@H](C)NC(=O)[C@H](CC(C)C)NC(=O)[C@H](CCCNC(=N)N)NC(=O)[C@H](CCC(N)=O)NC(=O)[C@@H](NC(=O)[C@H](C)NC(=O)[C@@H]1CSSC[C@H](NC(=O)[C@@H](N)CCCCNC(=O)COCCOCCNC(=O)COCCOCCNC(=O)CC[C@H](NC(=O)CCCCCCCCCCCCCCCCCCC(=O)O)C(=O)O)C(=O)N[C@@H](CC(N)=O)C(=O)N[C@@H]([C@@H](C)O)C(=O)N[C@@H](C)C(=O)N[C@@H]([C@@H](C)O)C(=O)N1)[C@@H](C)O)C(=O)N1CCC[C@H]1C(=O)N[C@@H](CO)C(=O)N[C@@H](CO)C(=O)N[C@H](C(=O)N[C@@H](CC(N)=O)C(=O)N[C@H](C(=O)NCC(=O)N[C@@H](CO)C(=O)N[C@@H](CCC(=O)O)C(=O)N[C@H](C(=O)N[C@@H](Cc1ccc(O)cc1)C(N)=O)[C@@H](C)O)C(C)C)[C@@H](C)O
notes: also called 17R, 21P, 27P, 35E
B4: N^α1-[(4S)-4-carboxy-4-[[(4S)-4-carboxy-4-(19-carboxynonadecanoylamino)butanoyl]amino]butanoyl]-[Glu14,Arg17,Pro21,Pro27,Pro37]-h-amylin (peptide)
peptide: {C20 diacid-γGlu-γGlu}-KCNTATCATQRLAEFLRHSSPNFGAIPSSTNVGSNTP-NH2
modifications: disulfide 2-7
SMILES: CC[C@H](C)[C@H](NC(=O)[C@H](C)NC(=O)CNC(=O)[C@H](Cc1ccccc1)NC(=O)[C@H](CC(N)=O)NC(=O)[C@@H]1CCCN1C(=O)[C@H](CO)NC(=O)[C@H](CO)NC(=O)[C@H](Cc1c[nH]cn1)NC(=O)[C@H](CCCNC(=N)N)NC(=O)[C@H](CC(C)C)NC(=O)[C@H](Cc1ccccc1)NC(=O)[C@H](CCC(=O)O)NC(=O)[C@H](C)NC(=O)[C@H](CC(C)C)NC(=O)[C@H](CCCNC(=N)N)NC(=O)[C@H](CCC(N)=O)NC(=O)[C@@H](NC(=O)[C@H](C)NC(=O)[C@@H]1CSSC[C@H](NC(=O)[C@H](CCCCN)NC(=O)CC[C@H](NC(=O)CC[C@H](NC(=O)CCCCCCCCCCCCCCCCCCC(=O)O)C(=O)O)C(=O)O)C(=O)N[C@@H](CC(N)=O)C(=O)N[C@@H]([C@@H](C)O)C(=O)N[C@@H](C)C(=O)N[C@@H]([C@@H](C)O)C(=O)N1)[C@@H](C)O)C(=O)N1CCC[C@H]1C(=O)N[C@@H](CO)C(=O)N[C@@H](CO)C(=O)N[C@H](C(=O)N[C@@H](CC(N)=O)C(=O)N[C@H](C(=O)NCC(=O)N[C@@H](CO)C(=O)N[C@@H](CC(N)=O)C(=O)N[C@H](C(=O)N1CCC[C@H]1C(N)=O)[C@@H](C)O)C(C)C)[C@@H](C)O
notes: also called 14E, 17R, 21P, 27P, 37P
B5: N^ε1-[2-[2-[2-(19-carboxynonadecanoylamino)ethoxy]ethoxy]acetyl]-[Arg17,Pro21,Pro27,His34]-h-amylin (peptide)
peptide: K([AEEA-C20 diacid])CNTATCATQRLANFLRHSSPNFGAIPSSTNVGHNTY-NH2
modifications: disulfide 2-7; N-terminus assumed
SMILES: CC[C@H](C)[C@H](NC(=O)[C@H](C)NC(=O)CNC(=O)[C@H](Cc1ccccc1)NC(=O)[C@H](CC(N)=O)NC(=O)[C@@H]1CCCN1C(=O)[C@H](CO)NC(=O)[C@H](CO)NC(=O)[C@H](Cc1c[nH]cn1)NC(=O)[C@H](CCCNC(=N)N)NC(=O)[C@H](CC(C)C)NC(=O)[C@H](Cc1ccccc1)NC(=O)[C@H](CC(N)=O)NC(=O)[C@H](C)NC(=O)[C@H](CC(C)C)NC(=O)[C@H](CCCNC(=N)N)NC(=O)[C@H](CCC(N)=O)NC(=O)[C@@H](NC(=O)[C@H](C)NC(=O)[C@@H]1CSSC[C@H](NC(=O)[C@@H](N)CCCCNC(=O)COCCOCCNC(=O)CCCCCCCCCCCCCCCCCCC(=O)O)C(=O)N[C@@H](CC(N)=O)C(=O)N[C@@H]([C@@H](C)O)C(=O)N[C@@H](C)C(=O)N[C@@H]([C@@H](C)O)C(=O)N1)[C@@H](C)O)C(=O)N1CCC[C@H]1C(=O)N[C@@H](CO)C(=O)N[C@@H](CO)C(=O)N[C@H](C(=O)N[C@@H](CC(N)=O)C(=O)N[C@H](C(=O)NCC(=O)N[C@@H](Cc1c[nH]cn1)C(=O)N[C@@H](CC(N)=O)C(=O)N[C@H](C(=O)N[C@@H](Cc1ccc(O)cc1)C(N)=O)[C@@H](C)O)C(C)C)[C@@H](C)O
notes: also called 17R, 21P, 27P, 34H
B6: N^α1N^α1-[(4S)-4-carboxy-4-(19-carboxynonadecanoylamino)butanoyl]-[Glu14,Arg17,Pro21,Pro27,Glu35]-h-amylin (peptide)
peptide: {C20 diacid-γGlu}-KCNTATCATQRLAEFLRHSSPNFGAIPSSTNVGSETY-NH2
modifications: disulfide 2-7
SMILES: CC[C@H](C)[C@H](NC(=O)[C@H](C)NC(=O)CNC(=O)[C@H](Cc1ccccc1)NC(=O)[C@H](CC(N)=O)NC(=O)[C@@H]1CCCN1C(=O)[C@H](CO)NC(=O)[C@H](CO)NC(=O)[C@H](Cc1c[nH]cn1)NC(=O)[C@H](CCCNC(=N)N)NC(=O)[C@H](CC(C)C)NC(=O)[C@H](Cc1ccccc1)NC(=O)[C@H](CCC(=O)O)NC(=O)[C@H](C)NC(=O)[C@H](CC(C)C)NC(=O)[C@H](CCCNC(=N)N)NC(=O)[C@H](CCC(N)=O)NC(=O)[C@@H](NC(=O)[C@H](C)NC(=O)[C@@H]1CSSC[C@H](NC(=O)[C@H](CCCCN)NC(=O)CC[C@H](NC(=O)CCCCCCCCCCCCCCCCCCC(=O)O)C(=O)O)C(=O)N[C@@H](CC(N)=O)C(=O)N[C@@H]([C@@H](C)O)C(=O)N[C@@H](C)C(=O)N[C@@H]([C@@H](C)O)C(=O)N1)[C@@H](C)O)C(=O)N1CCC[C@H]1C(=O)N[C@@H](CO)C(=O)N[C@@H](CO)C(=O)N[C@H](C(=O)N[C@@H](CC(N)=O)C(=O)N[C@H](C(=O)NCC(=O)N[C@@H](CO)C(=O)N[C@@H](CCC(=O)O)C(=O)N[C@H](C(=O)N[C@@H](Cc1ccc(O)cc1)C(N)=O)[C@@H](C)O)C(C)C)[C@@H](C)O
notes: also called 14E, 17R, 21P, 27P, 35E

These binders were tested against T1, human amylin receptor (assay: SPA competition binding, displacement of 125I-rat amylin from membranes with human amylin 3(a) receptor (Assay V)).
Experimental: The binding assay was performed using scintillation proximity assay (SPA) beads (RPNQ0001) from PerkinElmer and cell membranes from the Amylin 3(a)/CRE-luc cells (as described in Assay (II)) were used. Membranes were prepared in the following way; the cells were rinsed with PBS and incubated with Versene for approximately 5 min before harvesting. The cells were flushed with PBS and the cell-suspension was centrifuged for 5 min at 1000 rpm. Cells were homogenized (ultrathurrax) in a buffer containing 20 mM Na-HEPES and 10 mM EDTA (pH 7.4) and centrifuged at 20.000 rpm for 15 min. The resulting pellet was resuspended, homogenized and centrifuged (20.000 rpm, 15 min) in a buffer containing 20 mM Na-HEPES and 0.1 mM EDTA (pH 7.4, buffer 2). The resulting pellet was resuspended in buffer 2 and protein concentration was measured (BCA protein Assay, Pierce). The homogenate was kept cold during the whole procedure. The membranes were kept at −80° C. until use. The assay was performed in a 384 well Optiplate (PerkinElmer) in a total volume of 40 ul. Membranes were mixed with SPA beads. Final concentration of membranes 35 ng/μL final and SPA beads was 0.05 mg/well. Test-compounds were dissolved in DMSO and further diluted in assay buffer (50 mM Hepes, pH 7.4, 1 mM CaCl2, 5 mM MgCl₂, 0.1% OA and 0.02% Tween20). […] The final mixture was incubated with shaking at 400 rpm for 120 min at 25° C. prior to centrifugation (1500 rpm, 10 min). Samples were analyzed on TopCounter™ (Packard). The IC₅₀ was calculated using (one site binding competition analysis) GraphPad Prism5 as a measure of receptor affinity.
An IC50 of 0.143 nM was found for B1 in this work.
An IC50 of 0.061 nM was found for B2 in this work.
An IC50 of 0.768 nM was found for B3 in this work.
An IC50 of 0.196 nM was found for B4 in this work.
An IC50 of 0.119 nM was found for B5 in this work.
An IC50 of 0.794 nM was found for B6 in this work.
